Results as given in the supplement of paper PMC5998384.

Legend:
[1] = tested on: HeLa Kyoto; assay: melting temperature (median over replicates), in situ; higher = more thermally stable
[2] = tested on: HeLa Kyoto; assay: solubility change mitosis vs G1/S (difference of NP-40 vs SDS log2 ratios) (log2 ratio difference); higher = more soluble in mitosis
[3] = tested on: HeLa Kyoto; assay: solubility in G1/S (NP-40 vs SDS abundance) (log2 ratio); higher = more soluble; details: cell cycle stage: G1/S
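For melting temperature (median over replicates), in situ in this document: HeLa Kyoto cells synchronized by double thymidine or nocodazole block, proteins quantified by TMT10plex mass spectrometry, three independent biological replicates.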
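For solubility change mitosis vs G1/S (difference of NP-40 vs SDS log2 ratios) in this document: synchronized HeLa Kyoto cells (double thymidine block for G1/S, nocodazole release for mitosis), protein amounts in NP-40 versus SDS lysates quantified by mass spectrometry, three biological replicates.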
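For solubility in G1/S (NP-40 vs SDS abundance) in this document: HeLa Kyoto cells arrested at G1/S by double thymidine block, proteins quantified by TMT10plex mass spectrometry in mild NP-40 versus SDS extracts, three biological replicates.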

Sequence	melting temperature ([1]; cell cycle stage: G1/S)	melting temperature ([1]; cell cycle stage: mitosis)	solubility change mitosis (log2) [2]	solubility in G1/S (log2) [3]
MAAAPQAPGRGSLRKTRPLVVKTSLNNPYIIRWSALESEDMHFILQTLEDRLKAIGLQKIEDKKKKNKTPFLKKESREKCSIAVDISENLKEKKTDAKQQVSGWTPAHVRKQLAIGVNEVTRALERRELLLVLVCKSVKPAMITSHLIQLSLSRSVPACQVPRLSERIAPVIGLKCVLALAFKKNTTDFVDEVRAIIPRVPSLSVPWLQDRIEDSGENLETEPLESQDRELLDTSFEDLSKPKRKLADGRQASVTLQPLKIKKLIPNPNKIRKPPKSKKATPK [RPP38]	53.1 °C	51.7 °C	-0.0549	0.342
MAAFRDIEEVSQGLLSLLGANRAEAQQRRLLGRHEQVVERLLETQDGAEKQLREILTMEKEVAQSLLNAKEQVHQGGVELQQLEAGLQEAGEEDTRLKASLLQLTRELEELKEIEADLERQEKEVDEDTTVTIPSAVYVAQLYHQVSKIEWDYECEPGMVKGIHHGPSVAQPIHLDSTQLSRKFISDYLWSLVDTEW [SPC24]	49.2 °C	49.4 °C	0.363	-0.0462
MAAGKFASLPRNMPVNHQFPLASSMDLLSSRSPLAEHRPDAYQDVSIHGTLPRKKKGPPPIRSCDDFSHMGTLPHSKSPRQNSPVTQDGIQESPWQDRHGETFTFRDPHLLDPTVEYVKFSKERHIMDRTPEKLKKELEEELLLSSEDLRSHAWYHGRIPRQVSENLVQRDGDFLVRDSLSSPGNFVLTCQWKNLAQHFKINRTVLRLSEAYSRVQYQFEMESFDSIPGLVRCYVGNRRPISQQSGAIIFQPINRTVPLRCLEEHYGTSPGQAREGSLTKGRPDVAKRLSLTMGGVQAREQNLPRGNLLRNKEKSGSQPACLDHMQDRRALSLKAHQSESYLPIGCKLPPQSSGVDTSPCPNSPVFRTGSEPALSPAVVRRVSSDARAGEALRGSDSQLCPKPPPKPCKVPFLKVPSSPSAWLNSEANYCELNPAFATGCGRGAKLPSCAQGSHTELLTAKQNEAPGPRNSGVNYLILDDDDRERPWEPAAAQMEKGQWDKGEFVTPLLETVSSFRPNEFESKFLPPENKPLETAMLKRAKELFTNNDPKVIAQHVLSMDCRVARILGVSEEMRRNMGVSSGLELITLPHGHQLRLDIIERHNTMAIGIAVDILGCTGTLEDRAATLSKIIQVAVELKDSMGDLYSFSALMKALEMPQITRLEKTWTALRHQYTQTAILYEKQLKPFSKLLHEGRESTCVPPNNVSVPLLMPLVTLMERQAVTFEGTDMWEKNDQSCEIMLNHLATARFMAEAADSYRMNAERILAGFQPDEEMNEICKTEFQMRLLWGSKGAQVNQTERYEKFNQILTALSRKLEPPPVKQAEL [BCAR3]	46.3 °C	50.1 °C	0.0356	0.00142
MAAHLSYGRVNLNVLREAVRRELREFLDKCAGSKAIVWDEYLTGPFGLIAQYSLLKEHEVEKMFTLKGNRLPAADVKNIIFFVRPRLELMDIIAENVLSEDRRGPTRDFHILFVPRRSLLCEQRLKDLGVLGSFIHREEYSLDLIPFDGDLLSMESEGAFKECYLEGDQTSLYHAAKGLMTLQALYGTIPQIFGKGECARQVANMMIRMKREFTGSQNSIFPVFDNLLLLDRNVDLLTPLATQLTYEGLIDEIYGIQNSYVKLPPEKFAPKKQGDGGKDLPTEAKKLQLNSAEELYAEIRDKNFNAVGSVLSKKAKIISAAFEERHNAKTVGEIKQFVSQLPHMQAARGSLANHTSIAELIKDVTTSEDFFDKLTVEQEFMSGIDTDKVNNYIEDCIAQKHSLIKVLRLVCLQSVCNSGLKQKVLDYYKREILQTYGYEHILTLHNLEKAGLLKPQTGGRNNYPTIRKTLRLWMDDVNEQNPTDISYVYSGYAPLSVRLAQLLSRPGWRSIEEVLRILPGPHFEERQPLPTGLQKKRQPGENRVTLIFFLGGVTFAEIAALRFLSQLEDGGTEYVIATTKLMNGTSWIEALMEKPF [VPS33A]	49.4 °C	49.9 °C	-0.165	-0.0025
MAAQLLEEKLTCAICLGLYQDPVTLPCGHNFCGACIRDWWDRCGKACPECREPFPDGAELRRNVALSGVLEVVRAGPARDPGPDPGPGPDPAARCPRHGRPLELFCRTEGRCVCSVCTVRECRLHERALLDAERLKREAQLRASLEVTQQQATQAEGQLLELRKQSSQIQNSACILASWVSGKFSSLLQALEIQHTTALRSIEVAKTQALAQARDEEQRLRVHLEAVARHGCRIRELLEQVDEQTFLQESQLLQPPGPLGPLTPLQWDEDQQLGDLKQLLSRLCGLLLEEGSHPGAPAKPVDLAPVEAPGPLAPVPSTVCPLRRKLWQNYRNLTFDPVSANRHFYLSRQDQQVKHCRQSRGPGGPGSFELWQVQCAQSFQAGHHYWEVRASDHSVTLGVSYPQLPRCRLGPHTDNIGRGPCSWGLCVQEDSLQAWHNGEAQRLPGVSGRLLGMDLDLASGCLTFYSLEPQTQPLYTFHALFNQPLTPVFWLLEGRTLTLCHQPGAVFPLGPQEEVLS [TRIM65]	49.2 °C	49.3 °C	-0.0816	-0.0459
MAARGRRAEPQGREAPGPAGGGGGGSRWAESGSGTSPESGDEEVSGAGSSPVSGGVNLFANDGSFLELFKRKMEEEQRQRQEEPPPGPQRPDQSAAAAGPGDPKRKGGPGSTLSFVGKRRGGNKLALKTGIVAKKQKTEDEVLTSKGDAWAKYMAEVKKYKAHQCGDDDKTRPLVK [C19ORF43]	54.8 °C	51.3 °C	0.898	0.0485
MAASTASHRPIKGILKNKTSTTSSMVASAEQPRGNVDEELSKKSQKWDEMNILATYHPADKDYGLMKIDEPSTPYHSMMGDDEDACSDTEATEAMAPDILARKLAAAEGLEPKYRIQEQESSGEEDSDLSPEEREKKRQFEMKRKLHYNEGLNIKLARQLISKDLHDDDEDEEMLETADGESMNTEESNQGSTPSDQQQNKLRSS [PPP1R2]	59.3 °C	52.4 °C	0.383	0.172
MACLSPSQLQKFQQDGFLVLEGFLSAEECVAMQQRIGEIVAEMDVPLHCRTEFSTQEEEQLRAQGSTDYFLSSGDKIRFFFEKGVFDEKGNFLVPPEKSINKIGHALHAHDPVFKSITHSFKVQTLARSLGLQMPVVVQSMYIFKQPHFGGEVSPHQDASFLYTEPLGRVLGVWIAVEDATLENGCLWFIPGSHTSGVSRRMVRAPVGSAPGTSFLGSEPARDNSLFVPTPVQRGALVLIHGEVVHKSKQNLSDRSRQAYTFHLMEASGTTWSPENWLQPTAELPFPQLYT [PHYHD1]	50.2 °C	51.2 °C	-0.137	0.198
MAELGLNEHHQNEVINYMRFARSKRGLRLKTVDSCFQDLKESRLVEDTFTIDEVSEVLNGLQAVVHSEVESELINTAYTNVLLLRQLFAQAEKWYLKLQTDISELENRELLEQVAEFEKAEITSSNKKPILDVTKPKLAPLNEGGTAELLNKEILRLQEENEKLKSRLKTIEIQATNALDEKSKLEKALQDLQLDQGNQKDFIKAQDLSNLENTVAALKSEFQKTLNDKTENQKSLEENLATAKHDLLRVQEQLHMAEKELEKKFQQTAAYRNMKEILTKKNDQIKDLRKRLAQYEPED [LZTFL1]	53.2 °C	52.7 °C	0.0593	0.713
MAGAGGGGCPAGGNDFQWCFSQVKGAIDEDVAEADIISTVEFNYSGDLLATGDKGGRVVIFQREQENKSRPHSRGEYNVYSTFQSHEPEFDYLKSLEIEEKINKIRWLPQQNAAHFLLSTNDKTIKLWKISERDKRAEGYNLKDEDGRLRDPFRITALRVPILKPMDLMVEASPRRIFANAHTYHINSISVNSDHETYLSADDLRINLWHLEITDRSFNIVDIKPANMEELTEVITAAEFHPHQCNVFVYSSSKGTIRLCDMRSSALCDRHSKFFEEPEDPSSRSFFSEIISSISDVKFSHSGRYMMTRDYLSVKVWDLNMESRPVETHQVHEYLRSKLCSLYENDCIFDKFECCWNGSDSAIMTGSYNNFFRMFDRDTRRDVTLEASRESSKPRASLKPRKVCTGGKRRKDEISVDSLDFNKKILHTAWHPVDNVIAVAATNNLYIFQDKIN [PPP2R2D]	53.1 °C	–	-0.168	-0.162
MAGIPGLLFLLFFLLCAVGQVSPYSAPWKPTWPAYRLPVVLPQSTLNLAKPDFGAEAKLEVSSSCGPQCHKGTPLPTYEEAKQYLSYETLYANGSRTETQVGIYILSSSGDGAQHRDSGSSGKSRRKRQIYGYDSRFSIFGKDFLLNYPFSTSVKLSTGCTGTLVAEKHVLTAAHCIHDGKTYVKGTQKLRVGFLKPKFKDGGRGANDSTSAMPEQMKFQWIRVKRTHVPKGWIKGNANDIGMDYDYALLELKKPHKRKFMKIGVSPPAKQLPGGRIHFSGYDNDRPGNLVYRFCDVKDETYDLLYQQCDAQPGASGSGVYVRMWKRQQQKWERKIIGIFSGHQWVDMNGSPQDFNVAVRITPLKYAQICYWIKGNYLDCREG [PRSS23]	53.2 °C	53.6 °C	0.203	-0.403
MAGPESDAQYQFTGIKKYFNSYTLTGRMNCVLATYGSIALIVLYFKLRSKKTPAVKAT [USMG5]	55 °C	52.6 °C	-0.0955	-1.21
